Results as given in patent publication US20010052137A1, “Axin domain-like polypeptide inhibitors of glycogen synthase kinase 3 beta activity and activators of wnt signaling” (Trustees of the University of Pennsylvania, priority 2000, published 2001).

Tests used:
[1] = tested on: carboxyl-terminal fragment of Xenopus frizzled 3; test: Yeast two hybrid assay, interaction with frizzled 3 fragment; assay type: binding; details: beta-galactosidase filter assay in S. cerevisiae
Source text: (§1) FL Xaxin was cloned in frame with the GAL4 DNA binding domain (BD) in plasmid pAS2-1 (Clontech) to yield BD plasmid. Expression of BD plasmid yielded a Xaxin-GAL4 fusion protein. FL Xaxin, deltaDIX Xaxin, and a fragment (designated “AID”) encoding amino acid residues 489-777 of Xaxin were cloned in frame with the GAL4 transcriptional activation domain (AD) in the vector pACT2 to yield AD plasmids. Yeast were transformed with BD and AD plasmids using previously described protocols (Clontech, Palo Alto, Calif.). Transformed colonies were selected and assayed for beta-galactosidase activity in order to detect interacting proteins. In addition, three Xenopus axin partial length cDNAs (designated Y2H 2, Y2H 6, Y2H 7; all in plasmid pACT2) isolated from a previous yeast two hybrid screen (Hedgepeth et al., 1999, Mech. Develop. 80:147-151) were analyzed. Purification of GID
(§2) Using the yeast two hybrid assay, the ability of axin to bind with itself, with other members of the wnt pathway, or with the G(alpha)q subunit of heterotrimeric G-proteins, was investigated. […]
(§3) Saccharomyces cerevisiae cells were transformed with the bait vector and with one of the target vectors. Interaction was assessed using a filter assay to detect beta-galactosidase activity, as described (Fields et al., 1989, Nature 340:245-247; Harper et al., 1993, Cell 75:805-816). […]

[2] = tested on: GSK-3 beta; test: Co-immunoprecipitation of GSK-3 beta with Myc-tagged Xaxin constructs in Xenopus oocytes; assay type: binding; details: Myc-tagged construct co-expressed with GSK-3 beta in Xenopus oocytes; anti-Myc IP, anti-GSK-3 beta blot
[3] = biological target: T1, G(alpha)q subunit of heterotrimeric G-proteins (Homo sapiens, UniProt P50148); test: Yeast two hybrid assay, interaction with G(alpha)q; assay type: binding; details: beta-galactosidase filter assay in S. cerevisiae
T1 sequence (P50148 1-359): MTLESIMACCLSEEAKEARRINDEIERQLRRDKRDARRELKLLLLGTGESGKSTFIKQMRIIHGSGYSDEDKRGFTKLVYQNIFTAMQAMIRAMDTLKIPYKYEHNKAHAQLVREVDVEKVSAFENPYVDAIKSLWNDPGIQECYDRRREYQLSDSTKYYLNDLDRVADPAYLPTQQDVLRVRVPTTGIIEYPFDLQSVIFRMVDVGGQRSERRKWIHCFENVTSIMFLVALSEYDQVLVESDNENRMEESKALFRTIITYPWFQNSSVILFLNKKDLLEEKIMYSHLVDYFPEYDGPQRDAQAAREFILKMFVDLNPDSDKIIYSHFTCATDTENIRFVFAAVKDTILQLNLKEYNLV
Source text: as §1, §2, §3

[4] = tested on: beta-catenin; test: beta-catenin protein accumulation in Xenopus oocytes (immunoblot); assay type: cell-based; details: construct mRNA expressed in Xenopus oocytes
Protocol: FIG. 2A is an image of an immunoblot of Xenopus cytoplasmic extracts obtained from Xenopus embryos in which beta-catenin was expressed, using an antibody which binds specifically with beta-catenin (described in McCrea et al., 1993, J. Cell. Biol. 123:477-84). The embryo corresponding to lane 2 was incubated in the presence of 20 millimolar LiCI. Extracts corresponding to lanes 3-5, 7, and 8 were obtained from embryos in which full-length (lane 8) Xaxin or the C-term (lane 3), GID1 (“GID”; lanes 4 and 7), or N-term (lane 5) fragments of Xaxin were expressed.
Although endogenous GSK-3 beta is not present at sufficient levels to detect using the tau assay, inhibition of GSK-3 beta is known to cause stabilization of cytoplasmic beta-catenin (Cadigan et al., 1997, Genes Dev. 11:3286-3305; Miller et al., 1996, Genes Develop. 10:2527-2539), and this serves as a widely used assay for downstream activation of wnt signaling. Inhibition of endogenous GSK-3 beta activity also causes stabilization of beta-catenin in Xenopus embryos and oocytes (Hedgepeth et al., 1997, Develop. Biol. 185:82-91; Yost et al., 1998, Cell 93:1031-1041; Yost et al., 1996, Genes Develop. 10:1443-1454). For this reason, levels of beta-catenin protein were assessed in Xenopus oocytes which had been injected either with full length Xaxin mRNA or with mRNA encoding one of the amino-terminal, GID, or carboxyl-terminal domains of Xaxin.

[5] = tested on: GSK-3 beta protein lacking amino-terminal or carboxyl-terminal residues; test: Binding of full length axin to truncated GSK-3 beta; details: GSK-3 beta lacking as many as 62 amino-terminal or 132 carboxyl-terminal residues
[6] = tested on: GSK-3 beta; test: Yeast two hybrid assay, interaction with GSK-3 beta; assay type: binding; details: beta-galactosidase filter assay in S. cerevisiae
Source text: as §1, §2, §3

[7] = tested on: disheveled; test: Yeast two hybrid assay, interaction with disheveled; assay type: binding; details: beta-galactosidase filter assay in S. cerevisiae
Source text: as §1, §2, §3

[8] = tested on: Xenopus embryos; test: Dorsal axis duplication / dorsalization in Xenopus embryos after mRNA injection; assay type: in vivo; details: 4 cell embryo
[9] = biological target: T2, axin (Xenopus laevis, UniProt Q9YGY0); test: Co-immunoprecipitation of myc-tagged and HA-tagged axin in Xenopus embryos; assay type: binding
T2 construct: Full length (FL) Xaxin was assembled into plasmid CS2MT using restriction fragments of partial cDNA clones; expressed in transfected cells; host or cells: Xenopus embryos (fertilized eggs injected with mRNA, harvested at stage 8)

B1: full length Xaxin: full length Xenopus axin, amino acid residues 1-842 (SEQ ID NO: 8) (protein, listed as Xenopus laevis)
chain: MSVKGKGFPLDLGGSFTEDAPRPPVPGEEGELITTDQRPFSHTYYSLKNDGIKNETSTATPRRPDLDLGYEPEGSASPTPPYLKWAESLHSLLDDQDGIHLFRTFLQQENCADLLDFWFACSGFRKLEPNDSKVEKRLKLAKAIYKKYVLDSNGIVSRQIKPATKSFIKDCVLRQQIDPAMFDQAQMEIQSMMEDNTYPVFLKSDIYLEYTTIGGESPKNYSDQSSGSGTGKGPSGYLPTLNEDEEWRCDQGGEHERERECIPSSLFSQKLALDSSSHCAGSNRRLSDGREFRPGTWREPVNPYYVNTGYAGAPVTSANDSEQQSMSSDADTMSLTDSSVDGIPPYRLRKHYRREMQESANANGRGPLPHIPRTYHMPKDIHVDPEKFAAELISRLEGVLRDREAEQKLEERLKRVRAEEEGDDGDVSSGPSVISHKLPSGPPMHHFNSRYSETGCVGMQIRDAHEENPESILDEHVQRVMKTPGCQSPGTGRHSPKSRSPDGHLSKTLPGSLGTMQTGHGKHSSKSTAKVDSGNLHHHKHVYHHVHHHGGVKPKEQIDGESTQRVQTNFPWNVESHNYATKSRNYAESMGMAPNPMDSLAYSGKVSMLSKRNAKKADLGKSESASHEMPVVPEDSERHQKILQWIMEGEKEIIRHKKSNHSSSSAKKQPPTELARPLSIERPGAVHPWVSAQLRNVVQPSHPFIQDPTMPPNPAPNPLTQLVSKPGARLEEEEKKAAKMPQKQRLKPQKKNVSAPSQPCDNIVVAYYFCGEPIPYRTMVKGRVVTLGQFKELLTKKGNYRYYFKKVSDEFDCGVVFEEVREDDMILPIYEEKIIGQVEKID
- interaction with carboxyl-terminal fragment of Xenopus frizzled 3 [1]: did not interact
- binding with GSK-3 beta (co-immunoprecipitation) [2]: bound
- interaction with G(alpha)q [3]: did not interact
- accumulation of beta-catenin [4]: not observed
- binding with truncated GSK-3 beta [5]: able to bind
- interaction with GSK-3 beta [6]: interacted strongly
- interaction with disheveled [7]: did not interact
- effect on axial development ([8]; mRNA injected or expressed dorsally): caused ventralization
- secondary / ectopic axis formation ([8]; mRNA injected or expressed ventrally, scored at tadpole stage): induced formation of ectopic cement glands
- axin self-interaction (co-immunoprecipitation) [9]: interacts with itself
